Results taken from paper PMC6445550.

Test system: CCCCCCCCCCCCCCCC(=O)SCCNC(=O)CCNC(=O)[C@H](O)C(C)(C)COP(=O)(O)OP(=O)(O)OC[C@H]1O[C@@H](n2cnc3c(N)ncnc32)[C@H](O)[C@@H]1OP(=O)(O)O
Experiment: purified protein

## zDHHC9 (Homo sapiens)
  Km: 45 ± 4 µM
